Literature values in article PMC8438204, “Unraveling the Thermodynamics of Ultra-tight Binding of Intrinsically Disordered Proteins” (Frontiers in Molecular Biosciences, 2021).

What was measured:
CcdB2 = conditions: ref Drobnak et al., 2013
Method: Supplement DataSheet1.docx, table 1: Table S1. Thermodynamic parameters and structural properties of the complexes. All parameters are reported at T = 25°C. | column: Thermodynamic parameters || Nonetheless, a handful of examples of IDP binders with ultra-high affinity have been characterized to date. […] Complexes are ordered according to the degree of energy optimization as estimated by the ΔH bind/ASAint values. For the HigA2_3-23-HigB2 complex the degree of energy optimization is similar to one observed for the pairs of globular high affinity binders (Supplementary Table S1, Figure 3A). […] The high affinit ...

[1] = system: E7-Im7 (colicin DNase - immunity protein); conditions: ref Keeble et al., 2006
Method: Supplement DataSheet1.docx, table 1: Table S1. Thermodynamic parameters and structural properties of the complexes. All parameters are reported at T = 25°C. | column: Thermodynamic parameters

barnase-barstar = conditions: ref Frisch et al., 1997
Method: Supplement DataSheet1.docx, table 1: Table S1. Thermodynamic parameters and structural properties of the complexes. All parameters are reported at T = 25°C. | column: Thermodynamic parameters || Next, we examine how the binding energetics of HigA2_3-23-HigB2 compares to other ultra-high affinity complexes formed by globular proteins. These include well-known examples such as the barnase-barstar and the complexes between various immunity proteins and colicin-DNases ([Hartley, 1989]; [Keeble et al., 2006]). The overall Gibbs free energies of globular high affinity complexes (ΔG assoc about −19 kcal/mol) are approximately 3 kcal/mol more negative compared to HigA2_3–23-HigB2. Since no significant conformational changes occur upon formation of globular high affinity complexes in any of th ... || Nonetheless, a handful of examples of IDP binders with ultra-high affinity have been characterized to date.

B1: CcdA (protein, UniProt P62552 1-72, looked up)
Antitoxin CcdA: MKQRITVTVDSDSYQLLKAYDVNISGLVSTTMQNEARRLRAERWKAENQEGMAEVARFIEMNGSFADENRDW
**Q.** With B1 as the molecule, how does the “ΔG (association)” value (CcdB2; 25°C) read?
**A.** -15.6 kcal/mol

**Q.** What about the Kd (CcdB2) of the same molecule?
**A.** 4 pM

B2: E7-Im7 (protein, UniProt Q47112 1-576; Q03708 1-87, looked up)
Colicin-E7: MSGGDGRGHNSGAHNTGGNINGGPTGLGGNGGASDGSGWSSENNPWGGGSGSGVHWGGGSGHGNGGGNSNSGGGSNSSVAAPMAFGFPALAAPGAGTLGISVSGEALSAAIADIFAALKGPFKFSAWGIALYGILPSEIAKDDPNMMSKIVTSLPAETVTNVQVSTLPLDQATVSVTKRVTDVVKDTRQHIAVVAGVPMSVPVVNAKPTRTPGVFHASFPGVPSLTVSTVKGLPVSTTLPRGITEDKGRTAVPAGFTFGGGSHEAVIRFPKESGQKPVYVSVTDVLTPAQVKQRQDEEKRLQQEWNDAHPVEVAERNYEQARAELNQANKDVARNQERQAKAVQVYNSRKSELDAANKTLADAKAEIKQFERFAREPMAAGHRMWQMAGLKAQRAQTDVNNKKAAFDAAAKEKSDADVALSSALERRKQKENKEKDAKAKLDKESKRNKPGKATGKGKPVNNKWLNNAGKDLGSPVPDRIANKLRDKEFKSFDDFRKKFWEEVSKDPELSKQFSRNNNDRMKVGKAPKTRTQDVSGKRTSFELHHEKPISQNGGVYDMDNISVVTPKRHIDIHRGK
Colicin-E7 immunity protein: MELKNSISDYTEAEFVQLLKEIEKENVAATDDVLDVLLEHFVKITEHPDGTDLIYYPSDNRDDSPEGIVKEIKEWRAANGKPGFKQG
**Q.** What does the source list for B2?
**A.** -TΔS ([1]; 25°C): 10.5 kcal/mol; ΔG ([1]; 25°C): -19.8 kcal/mol; ΔH ([1]; 25°C): -30.3 ± 0.8 kcal/mol; ΔCp [1]: -0.69 kcal mol^-1 K^-1

B3: barnase-barstar (protein, UniProt P00648 48-157; P11540 2-90, looked up)
Ribonuclease: AQVINTFDGVADYLQTYHKLPDNYITKSEAQALGWVASKGNLADVAPGKSIGGDIFSNREGKLPGKSGRTWREADINYTSGFRNSDRILYSSDWLIYKTTDHYQTFTKIR
Barstar: KKAVINGEQIRSISDLHQTLKKELALPEYYGENLDALWDCLTGWVEYPLVLEWRQFEQSKQLTENGAESVLQVFREAKAEGCDITIILS
**Q.** Which “-TΔS” value (barnase-barstar; 25°C) does the source give for B3 here?
**A.** -0.1 kcal/mol

**Q.** And the ΔG (barnase-barstar; 25°C)?
**A.** -19 kcal/mol

**Q.** And the ΔCp (barnase-barstar)?
**A.** -0.36 ± 0.02 kcal mol^-1 K^-1
